As usually defined, the Kd is the constant that tells how readily two partners part at equilibrium. A high value points to lower affinity. What is called koff is a measure of how fast the partners let go of each other. Low values mean a long-lived complex, high ones a short-lived complex. For orientation: kon means a measure of how fast the partners come together. A lower kon goes with slow association. A word on the EC50: it is the midpoint of the concentration-response curve. Lower therefore signals an effect from little substance.

Positions count from the first letter of the chain named.

The values below come from patent US20250109201A1 (AGENUS, published 2025).

For experiment [1], the target named is T1, ECD-His tagged human ILT2 haplotype PE01 (human, UniProt Q8NHL6 24-458).
T1 construct: also called Human ILT2 PE01 ECD; LILRB1/ILT2 PE01; not shown: His tag
T1 sequence (Q8NHL6 24-458): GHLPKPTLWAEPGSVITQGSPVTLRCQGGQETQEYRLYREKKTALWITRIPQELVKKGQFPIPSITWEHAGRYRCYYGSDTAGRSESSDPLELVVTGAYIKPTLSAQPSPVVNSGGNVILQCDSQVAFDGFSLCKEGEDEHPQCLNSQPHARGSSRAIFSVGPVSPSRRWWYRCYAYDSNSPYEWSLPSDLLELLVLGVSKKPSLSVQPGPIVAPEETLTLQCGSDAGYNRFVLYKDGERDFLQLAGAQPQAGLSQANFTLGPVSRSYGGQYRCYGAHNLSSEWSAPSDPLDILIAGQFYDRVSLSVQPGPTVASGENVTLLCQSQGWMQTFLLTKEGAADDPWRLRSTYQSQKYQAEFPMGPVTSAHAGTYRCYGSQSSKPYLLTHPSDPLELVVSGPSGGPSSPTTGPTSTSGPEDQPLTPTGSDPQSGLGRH
The experiment can be described thus: SPR, ILT2 PE01 ECD-His, average of two measurements. As for the experimental part:
(§1) Briefly, SPR experiments were performed using a Biacore T200 instrument, and the association rate (Kₐ), dissociation rate (Kd), and dissociation constant (KD) were calculated from each experiment using a 1:1 binding model with Biacore™ T200 Evaluation Software. Capture of antibodies from the Human Fab Capture kit (28958325, GE Healthcare) to the Series S CM5 sensor chip (29149603, GE Healthcare) was performed using the immobilization wizard for amine coupling from the Biacore™ control panel and following the manufacturer's recommendations included with the kit.
Variants of irrelevant antibody VRC01 (with IgG1, IgG1 N297A, IgG4 S228P, IgG2, or IgG2 C127S constant regions) were used as negative isotype controls. The binding kinetics are shown in Table 5 as an average from two independent measurements.
(In general: SPR reads the build-up and loss of mass on a sensor chip optically.)

The target in experiment [2] is T2, human ILT2 extracellular and transmembrane domains expressed on CHO cells (human, UniProt Q8NHL6 24-482, limits assumed).
T2 construct: domain: extracellular and transmembrane domains; which one is told under assay; also called CHO cells expressing human ILT2 (relatively low or relatively high level); CHO-ILT2 cells
T2 sequence (Q8NHL6 24-482 limits assumed): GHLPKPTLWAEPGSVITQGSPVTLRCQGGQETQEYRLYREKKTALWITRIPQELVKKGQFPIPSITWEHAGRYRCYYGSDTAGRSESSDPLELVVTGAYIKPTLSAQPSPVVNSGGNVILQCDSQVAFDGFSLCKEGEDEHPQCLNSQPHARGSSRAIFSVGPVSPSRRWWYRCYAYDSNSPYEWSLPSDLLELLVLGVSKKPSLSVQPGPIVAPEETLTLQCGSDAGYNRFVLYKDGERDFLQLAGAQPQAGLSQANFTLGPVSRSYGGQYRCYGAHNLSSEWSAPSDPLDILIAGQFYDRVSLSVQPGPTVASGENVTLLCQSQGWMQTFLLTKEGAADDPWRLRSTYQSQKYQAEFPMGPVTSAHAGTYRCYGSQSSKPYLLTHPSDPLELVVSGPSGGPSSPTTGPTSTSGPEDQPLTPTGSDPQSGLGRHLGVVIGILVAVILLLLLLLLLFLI
The experiment can be described thus: flow cytometry, CHO cells with high human ILT2. As for the experimental part:
For the antibody binding assay, the cells were seeded in a 96-well U-bottom tissue culture plate at a density of 3×10⁵ cells per well in 25 μL of PBS supplemented with 0.5% BSA, 1 mM EDTA and 0.05% sodium azide (FACS Buffer). The cells were incubated for 30 minutes at 4° C. with […] of a series dilution of anti-ILT2 antibodies or isotype control at concentrations from 10 μg/mL to 2.4 ng/mL in FACS Buffer.
After a 30-minute incubation in the dark at 4° C., the cells were washed twice with cold FACS Buffer, and the cells were analyzed by flow cytometry (BD LSR Fortessa Flow Cytometer). CHO-ILT2 cells were identified and MFI was calculated as above.
(In flow cytometry, cells or beads pass a laser one at a time.)

Experiment [3] has as its target T3, full-length ILT2 expressed on Jurkat cells (human, UniProt Q8NHL6 24-650).
T3 construct: whole, on cells; The Jurkat line also carries FcgRIIIa and an NFAT-luciferase reporter (Promega/G7102); also called Jurkat cells expressing human ILT2; ILT2-expressing Jurkat reporter cells
The experiment can be described thus: flow cytometry, Jurkat cells expressing human ILT2.

The target of experiment [4] is T4, ECD-His tagged human ILT2 haplotype PE03 (human, UniProt Q8NHL6 24-458).
T4 construct: also called Human ILT2 PE03 ECD (Sino biological, 16014-H08H); not shown: His tag
T4 sequence (Q8NHL6 other isoform, or with tags, fused parts or gaps): as the sequence (Q8NHL6 24-458) above, with L45P, I119T, S132I counted along it
The experiment can be described thus: SPR, captured antibody, ILT2 ECD-His analyte. The method, then: (§2) The binding affinity of anti-ILT2 antibody variants with IgG1 N297A constant regions to ECD-His tagged human ILT2 haplotypes PE01, PE02, PE03 (see Table 1) was assessed by surface plasmon resonance (SPR).
as §1
(§3) Approximately 3 μg/mL of tested anti-ILT2 antibodies and controls diluted in a running buffer (10 mM HEPES, 150 mM NaCl, 3 mM EDTA, and 0.05% surfactant P20) were captured in individual flow cells of previously prepared anti Human Fab CM5 chip, keeping a single flow cell as a reference. Antibodies were captured using a 30 sec injection at a flow rate of 10 μL/min to reach about 150 resonance units (Rus). Human ILT2 ECD PE01 (diluted in the running buffer at the concentration of 30, 10, 3.3, 1.11, 0.37, 0.12 nM), and human ILT2 ECD PE02 and PE03 (diluted in the running buffer at the concentration of 33.3, 11.1, 3.7, 1.2, 0.41, 0.14 nM), were flowed over the chip surface at a flow rate of 30 μL/min with a 3-min association phase and a 10-min dissociation phase. The sensor chip was regenerated between cycles with a double 30-sec injection of 10 mM glycine, pH 2.1 at 30 μL/min followed by stabilization period of 60s. Sensorgrams were evaluated and fit to a simple Langmuir 1:1 interaction model using the global data analysis option of BIAevaluation 3.1 software. Data quality was verified by visually inspecting deviations and curve fitting, and by evaluating the parameters of Rₘₐₓ, Chi2, and Tc.

In experiment [5] the target is T5, ECD-His tagged human ILT2 haplotype PE02 (human, UniProt Q8NHL6 24-458).
T5 construct: also called Human ILT2 PE02 ECD; not shown: His tag
T5 sequence (Q8NHL6 other isoform, or with tags, fused parts or gaps): as the sequence (Q8NHL6 24-458) above, with L45P, A70T, I119T, S132I counted along it
The experiment can be described thus: SPR, captured antibody, ILT2 ECD-His analyte. As for the experimental part: as §2, §1, §3

The target in experiment [6] is T1, ECD-His tagged human ILT2 haplotype PE01. The experiment can be described thus: SPR, captured antibody, ILT2 ECD-His analyte. As for the experimental part: as §2, §1, §3
For experiment [7], the target named is T2, human ILT2 extracellular and …. Put plainly: flow cytometry, CHO cells with low human ILT2. The method, then: For the antibody binding assay, the cells were seeded in a 96-well U-bottom tissue culture plate at a density of 3×10⁵ cells per well in 25 μL of PBS supplemented with 0.5% BSA, 1 mM EDTA and 0.05% sodium azide (FACS Buffer). The cells were incubated for 30 minutes at 4° C. with 25 μL of a series dilution of anti-ILT2 antibodies or isotype control, at final concentrations ranging from 10 μg/mL to 0.2 ng/mL in FACS Buffer.
After a 30-minute incubation in the dark at 4° C., the cells were washed twice with cold FACS Buffer, and the cells were analyzed by flow cytometry (BD LSR Fortessa Flow Cytometer). CHO cells were identified using a plot of forward scatter-area (FSC-A) versus side scatter area (SSC-A) and another plot of FSC-A versus forward scatter-height (FSC-H) for selection of single cells. Samples were analyzed by sequentially gating on the single cell population and plotting histograms representing the fluorescence in the PE channel. For each sample, mean fluorescence intensity (MFI) was calculated, and the data were plotted by GraphPad Prism software.

T3 sequence (Q8NHL6 24-650): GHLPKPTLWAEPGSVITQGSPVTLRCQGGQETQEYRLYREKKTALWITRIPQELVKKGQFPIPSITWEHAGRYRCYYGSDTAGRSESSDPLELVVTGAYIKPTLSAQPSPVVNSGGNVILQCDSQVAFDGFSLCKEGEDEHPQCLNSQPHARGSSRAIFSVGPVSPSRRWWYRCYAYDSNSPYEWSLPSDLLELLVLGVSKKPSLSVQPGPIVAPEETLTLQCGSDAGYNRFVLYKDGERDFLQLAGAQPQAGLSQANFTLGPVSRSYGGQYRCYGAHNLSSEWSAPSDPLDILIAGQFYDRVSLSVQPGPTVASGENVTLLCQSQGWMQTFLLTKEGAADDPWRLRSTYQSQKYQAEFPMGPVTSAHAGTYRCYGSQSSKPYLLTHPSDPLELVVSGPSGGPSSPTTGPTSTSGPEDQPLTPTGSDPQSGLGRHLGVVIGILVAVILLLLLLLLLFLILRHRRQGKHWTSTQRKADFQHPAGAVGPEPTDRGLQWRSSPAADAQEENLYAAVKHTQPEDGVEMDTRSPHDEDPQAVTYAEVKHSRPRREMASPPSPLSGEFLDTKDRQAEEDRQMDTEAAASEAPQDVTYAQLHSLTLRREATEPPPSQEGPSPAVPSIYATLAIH

B1: BA217 (antibody, human IgG2, kappa)
heavy: QVQLVQSGAEVKKPGASVKVSCKASGYTFNRYYMHWVRQAPGQGLEWMGWINPYTGGTNYAQKFQGRVTMTRDTSISTAYMELSRLRSDDTAVYYCASKQPSSDYWGQGTLVTVSSASTKGPSVFPLAPCSRSTSESTAALGCLVKDYFPEPVTVSWNSGALTSGVHTFPAVLQSSGLYSLSSVVTVPSSNFGTQTYTCNVDHKPSNTKVDKTVERKCCVECPPCPAPPVAGPSVFLFPPKPKDTLMISRTPEVTCVVVDVSHEDPEVQFNWYVDGVEVHNAKTKPREEQFNSTFRVVSVLTVVHQDWLNGKEYKCKVSNKGLPAPIEKTISKTKGQPREPQVYTLPPSREEMTKNQVSLTCLVKGFYPSDIAVEWESNGQPENNYKTTPPMLDSDGSFFLYSKLTVDKSRWQQGNVFSCSVMHEALHNHYTQKSLSLSPGK
light: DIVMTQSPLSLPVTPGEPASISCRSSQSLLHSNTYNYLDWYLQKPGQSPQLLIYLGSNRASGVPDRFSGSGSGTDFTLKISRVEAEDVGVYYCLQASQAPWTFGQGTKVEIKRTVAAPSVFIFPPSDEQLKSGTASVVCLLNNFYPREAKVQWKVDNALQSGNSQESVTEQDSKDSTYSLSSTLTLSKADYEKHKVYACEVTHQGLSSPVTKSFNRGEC
In experiment [1], B1 came in with a Kd of 0.17 nM, a koff of 5.4e-05 s⁻¹ and a kon of 340000 M⁻¹ s⁻¹. In experiment [2], this molecule displayed an AUC of 264000 and an EC50 of 0.248 µg/mL.

B2: BA219 (antibody, human IgG2, kappa)
heavy: B1 heavy with C130S
light: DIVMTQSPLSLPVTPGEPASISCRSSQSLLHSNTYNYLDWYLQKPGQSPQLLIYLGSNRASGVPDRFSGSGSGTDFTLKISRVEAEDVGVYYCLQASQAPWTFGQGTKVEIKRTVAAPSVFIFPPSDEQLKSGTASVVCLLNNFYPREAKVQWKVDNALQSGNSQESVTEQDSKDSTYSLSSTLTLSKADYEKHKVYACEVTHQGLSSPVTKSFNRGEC
Consider B2, for which, in experiment [1], binding was put at a Kd of 0.14 nM, the koff is 4.8e-05 s⁻¹ and the kon came to 350000 M⁻¹ s⁻¹. In addition, in experiment [2], the AUC was found to be 307000 and the EC50 was 0.183 µg/mL.

B3: BA220 (antibody, human IgG2, kappa)
heavy: B1 heavy with C130S
light: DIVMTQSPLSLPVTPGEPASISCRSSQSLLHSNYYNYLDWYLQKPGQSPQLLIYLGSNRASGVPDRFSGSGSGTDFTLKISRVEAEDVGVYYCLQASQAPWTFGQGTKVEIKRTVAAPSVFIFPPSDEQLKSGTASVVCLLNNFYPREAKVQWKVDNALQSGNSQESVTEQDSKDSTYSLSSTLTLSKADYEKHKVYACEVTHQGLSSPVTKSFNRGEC
In experiment [1], B3 had a Kd of 0.14 nM, a koff of 5.7e-05 s⁻¹ and a kon of 420000 M⁻¹ s⁻¹. In experiment [2], this molecule had an AUC of 305000 and an EC50 of 0.282 µg/mL.

B4: BA246 (antibody, human IgG2, kappa)
heavy: B1 heavy
light: not shown
For the molecule B4, in experiment [1], the Kd is 0.23 nM, the koff turned out to be 7.4e-05 s⁻¹ and the kon was 330000 M⁻¹ s⁻¹.

B5: BA218 (antibody, human IgG2, kappa)
heavy: B1 heavy
light: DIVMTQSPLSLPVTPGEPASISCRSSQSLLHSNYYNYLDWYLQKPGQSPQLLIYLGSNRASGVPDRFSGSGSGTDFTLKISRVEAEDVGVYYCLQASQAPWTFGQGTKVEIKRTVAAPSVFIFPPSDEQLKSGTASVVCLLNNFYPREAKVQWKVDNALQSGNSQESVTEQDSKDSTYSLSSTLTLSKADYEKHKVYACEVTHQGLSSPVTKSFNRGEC
In experiment [1], B5 gave a Kd of 0.19 nM, a koff of 7e-05 s⁻¹ and a kon of 390000 M⁻¹ s⁻¹. Moreover, in experiment [2], the AUC worked out at 295000 and the EC50 was 0.227 µg/mL.

B6: BA247 (antibody, human IgG2, kappa)
heavy: B1 heavy with C130S
light: not shown
In the case of B6, in experiment [1], binding was put at a Kd of 0.31 nM, the koff came out at 9.7e-05 s⁻¹ and the kon worked out at 330000 M⁻¹ s⁻¹.

B7: BA212 (antibody, human IgG1, kappa, N297A, V domains shown)
VH: QVQLVQSGAEVKKPGASVKVSCKASGYTFNRYYMHWVRQAPGQGLEWMGWINPYTGGTNYAQKFQGRVTMTRDTSISTAYMELSRLRSDDTAVYYCASKQPSSDYWGQGTLVTVSS
VL: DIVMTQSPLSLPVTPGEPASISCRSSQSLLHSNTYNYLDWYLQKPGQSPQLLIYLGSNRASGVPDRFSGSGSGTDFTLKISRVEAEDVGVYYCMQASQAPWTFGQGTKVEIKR
In experiment [3], B7 registered an AUC of 222000 and an EC50 of 0.057 µg/mL. Further, in experiment [4], the Kd came to 0.875 nM, the koff worked out at 0.0004 s⁻¹ and the kon was found to be 460000 M⁻¹ s⁻¹. In experiment [5], binding was put at a Kd of 0.783 nM, the koff was 0.00021 s⁻¹ and the kon amounted to 270000 M⁻¹ s⁻¹. Also, in experiment [6], the Kd was found to be 0.089 nM, the koff was determined as 3.3e-06 s⁻¹ and the kon amounted to 37000 M⁻¹ s⁻¹. In experiment [7], this molecule gave an AUC of 15100 and a concentration for a half-maximal effect (EC50) of 0.087 µg/mL.

B8: BA213 (antibody, human IgG1, kappa, N297A, V domains shown)
VH: B7 VH
VL: not shown
With B8, in experiment [3], the AUC came to 189000 and the EC50 turned out to be 0.11 µg/mL. In experiment [4], this molecule gave a dissociation constant (Kd) of 0.149 nM, a koff of 7.5e-05 s⁻¹ and a kon of 500000 M⁻¹ s⁻¹. Further, in experiment [5], the Kd worked out at 0.63 nM, the koff was determined as 0.00015 s⁻¹ and the kon amounted to 230000 M⁻¹ s⁻¹. Also, in experiment [6], the Kd is 0.033 nM, the koff was 1.1e-05 s⁻¹ and the kon stood at 320000 M⁻¹ s⁻¹. Moreover, in experiment [7], the AUC is 13600 and the midpoint of the response, the EC50, lay at 0.175 µg/mL.

B9: BA216 (antibody, human IgG1, kappa, N297A, V domains shown)
VH: B7 VH
VL: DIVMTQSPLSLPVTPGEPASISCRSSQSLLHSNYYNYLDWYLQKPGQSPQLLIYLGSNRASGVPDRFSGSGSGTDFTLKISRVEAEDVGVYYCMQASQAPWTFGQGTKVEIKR
Regarding B9, in experiment [3], the AUC worked out at 199000 and the EC50 is 0.07 µg/mL. In experiment [4], the Kd worked out at 0.317 nM, the koff amounted to 8.5e-05 s⁻¹ and the kon was 270000 M⁻¹ s⁻¹. In experiment [5], this molecule yielded a Kd of 0.617 nM, a koff of 0.00014 s⁻¹ and a kon of 230000 M⁻¹ s⁻¹. Also, in experiment [6], binding was put at a Kd of 0.185 nM, the off-rate (koff) turned out to be 6.7e-05 s⁻¹ and the kon is 360000 M⁻¹ s⁻¹. Besides, in experiment [7], the AUC is 14400 and it took 0.078 µg/mL to reach a half-maximal effect (EC50).
